Experimental findings from article PMC4227725 (Journal of the American Chemical Society, 2014) are described below.

The test system of data set [1] is HeLa cells. The following applies: Tat polymer 2.5 μM, chymotrypsin 1 μM, up to 14 h.
Data set [2] relates to HeLa cells. The settings on record: 2.5 μM, 30 min, 37 °C, heparin washes, phenol red-free medium.

On to YGRKKRRQRRR [Tat polymer], for which the “cell entry after incubation with chymotrypsin, time course (in words)” value with HeLa cells [1] was “retains the ability to enter cells”.
Consider GSGSG [GSGSG polymer], for which, in the data set on HeLa cells [2], the “fluorescence in live cells, Z-stack 1 μm slices (in words)” value is listed as “no fluorescence was seen”.
